In US7326418B2, “Identification of novel factors that block programmed cell death or apoptosis by targeting JNK” (University of Chicago, priority 2001, dated 2008):

Target: T1, GST-MKK7 (Homo sapiens, UniProt O14733, Q133P/Q94H)
T1 construct: made in house; host or cells: E. coli BL21
T1 sequence (O14733 1-401 Q94H/Q133P limits assumed): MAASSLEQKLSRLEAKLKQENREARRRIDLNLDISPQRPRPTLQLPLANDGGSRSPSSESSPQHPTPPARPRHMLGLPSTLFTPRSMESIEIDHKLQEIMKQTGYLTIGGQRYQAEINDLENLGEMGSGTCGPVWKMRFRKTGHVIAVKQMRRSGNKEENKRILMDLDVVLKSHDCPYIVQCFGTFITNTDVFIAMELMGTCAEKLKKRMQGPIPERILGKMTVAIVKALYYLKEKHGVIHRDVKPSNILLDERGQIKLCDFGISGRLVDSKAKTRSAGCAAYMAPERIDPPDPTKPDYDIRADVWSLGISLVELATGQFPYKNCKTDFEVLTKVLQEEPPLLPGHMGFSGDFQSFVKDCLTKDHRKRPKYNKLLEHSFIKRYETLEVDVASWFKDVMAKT
Assay: In vitro pull-down with purified proteins: His6/T7-tagged proteins binding to GST-MKK7
Settings: JIP1 used under non-saturating conditions, read-out: half maximum binding (HMB) value for binding to GST-MKK7
Excerpt: Protein levels are shown (bottom). b, g, Coomassie brilliant blue staining (CS) showing purity of the proteins used in (c) and (d, e), respectively. c, In vitro pull-down assays with purified proteins showing direct interaction between His6/T7-Gadd45β (His6disclosed as SEQ ID NO: 46) and GST-MKK7. Precipitated GST proteins and bound His6/T7-tagged proteins(His6 disclosed as SEQ ID NO: 46) were visualized by CS and Western blotting (WB) with anti-T7 antibodies, respectively. Inputs of His6/T7-tagged proteins (His6 disclosed as SEQ ID NO: 46) are indicated. The fraction of His6/T7-Gadd45β (His6 disclosed as SEQ ID NO: 46) and His6/T7-JIP1 (His6 disclosed as SEQ ID NO: 46) binding to GST-MKK7 (expressed as arbitrary units [a.u.]; left) was calculated relatively to a standard curve generated with known protein concentrations^19. d, e, Kinase assays showing specific inhibition of active MKK7 by purified GST-Gadd45β and His6-Gadd45β (His6 disclosed as SEQ ID NO: 46), in vitro. […]
Interaction of endogenous Gadd45β and MKK7 was detected readily (FIG. 28a). […]
GST precipitations with in vitro-translated proteins or purified proteins (FIG. 26-30), and kinase assays were performed. […] MKK7 phosphorylation was monitored by performing immunoprecipitations with anti-P-MKK7 antibodies (developed at Cell Signaling) followed by Western blots with anti-total MKK7 antibodies. […]

Kd: ~390 nM
B1: Gadd45β: purified recombinant His6-tagged Gadd45β protein; also used generically for the recombinant Gadd45β proteins (protein, UniProt O75293 1-160, looked up)
Growth arrest and DNA …: MTLEELVACDNAAQKMQTVTAAVEELLVAAQRQDRLTVGVYESAKLMNVDPDSVVLCLLAIDEEEEDDIALQIHFTLIQSFCCDNDINIVRVSGMQRLAQLLGEPAETQGTTEARDLHCLLVTNPHTDAWKSHGLVEVASYCEESRGNNQWVPYISLQER
modifications: His6 tag
notes: purified recombinant His6-tagged Gadd45β protein; also used generically for the recombinant Gadd45β proteins
